Source: publication PMC9482650, “Quantitative fragmentomics allow affinity mapping of interactomes” (Nature Communications, 2022)

T1: GRIP1_1, Q9Y3R0
T1 sequence (Q9Y3R0 48-146, limits assumed, looked up): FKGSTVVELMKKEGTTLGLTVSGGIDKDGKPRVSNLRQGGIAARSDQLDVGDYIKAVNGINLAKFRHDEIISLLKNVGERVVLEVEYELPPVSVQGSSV

T2: LNX2_4, Q8N448
T2 sequence (Q8N448 595-690, limits assumed, looked up): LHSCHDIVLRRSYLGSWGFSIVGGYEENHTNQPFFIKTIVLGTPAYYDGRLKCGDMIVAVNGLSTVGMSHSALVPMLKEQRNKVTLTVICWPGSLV

T3: MPDZ_13, O75970
T3 sequence (O75970 1982-2070, limits assumed, looked up): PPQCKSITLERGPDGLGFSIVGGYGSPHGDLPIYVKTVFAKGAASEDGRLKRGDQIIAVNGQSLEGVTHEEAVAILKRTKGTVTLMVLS

T4: MPDZ_2, O75970
T4 sequence (O75970 252-347, limits assumed, looked up): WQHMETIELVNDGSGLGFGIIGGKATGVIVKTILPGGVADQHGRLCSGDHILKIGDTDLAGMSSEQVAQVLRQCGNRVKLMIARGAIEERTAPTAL

T5: MPDZ_6, O75970
T5 sequence (O75970 1003-1099, limits assumed, looked up): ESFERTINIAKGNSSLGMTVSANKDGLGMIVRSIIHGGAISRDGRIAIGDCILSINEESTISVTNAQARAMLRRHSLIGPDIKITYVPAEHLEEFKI

T6: NHERF3_2, Q5T2W1
T6 sequence (Q5T2W1 129-225, limits assumed, looked up): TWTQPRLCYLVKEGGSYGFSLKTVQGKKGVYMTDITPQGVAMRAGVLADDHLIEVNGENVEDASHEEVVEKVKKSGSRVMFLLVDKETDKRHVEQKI

T7: PDLIM3, Q53GG5
T7 sequence (Q53GG5 1-94, limits assumed, looked up): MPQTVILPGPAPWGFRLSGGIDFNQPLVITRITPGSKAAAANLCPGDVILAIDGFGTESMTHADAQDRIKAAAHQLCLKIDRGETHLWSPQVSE

T8: PDZD2_3, O15018
T8 sequence (O15018 581-682, limits assumed, looked up): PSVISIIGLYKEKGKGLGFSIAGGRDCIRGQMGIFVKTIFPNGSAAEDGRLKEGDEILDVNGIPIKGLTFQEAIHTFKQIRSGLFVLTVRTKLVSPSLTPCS

T9: PDZD8, Q8NEN9
T9 sequence (Q8NEN9 361-459, limits assumed, looked up): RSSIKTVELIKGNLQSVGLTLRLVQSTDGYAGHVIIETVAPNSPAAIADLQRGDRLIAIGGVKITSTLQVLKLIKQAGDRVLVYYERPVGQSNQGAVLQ

T10: PREX2_2, Q70Z35
T10 sequence (Q70Z35 672-764, limits assumed, looked up): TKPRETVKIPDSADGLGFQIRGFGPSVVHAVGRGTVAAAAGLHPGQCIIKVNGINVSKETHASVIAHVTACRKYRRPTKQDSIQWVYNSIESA

T11: SHROOM2, Q13796
T11 sequence (Q13796 21-118, limits assumed, looked up): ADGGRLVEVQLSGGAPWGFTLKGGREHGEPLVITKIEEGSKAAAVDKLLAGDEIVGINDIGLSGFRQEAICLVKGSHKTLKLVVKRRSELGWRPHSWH

T12: SIPA1L3, O60292
T12 sequence (O60292 961-1052, limits assumed, looked up): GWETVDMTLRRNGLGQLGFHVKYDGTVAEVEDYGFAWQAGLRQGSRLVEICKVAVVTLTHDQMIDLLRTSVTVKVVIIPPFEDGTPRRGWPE

T13: SYNPO2L, Q9H987
T13 sequence (Q9H987 1-98, limits assumed, looked up): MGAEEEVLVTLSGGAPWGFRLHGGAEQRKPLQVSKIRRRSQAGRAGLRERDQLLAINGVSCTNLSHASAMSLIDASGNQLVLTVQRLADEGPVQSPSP


Tests used:
Assay in all cases: holdup assay
Design in all cases: key: below the threshold = too weak to quantify, mostly under pKd 3.1 to 4
Conditions in all cases: plain residues with an end cap or a label only (N-terminal biotin on a linker: ttds)
[1] = target: CARD14, Q9BXL6
[2] = target: T1, GRIP1_1, Q9Y3R0
[3] = target: Inadl_7, Q8NI35
[4] = target: T2, LNX2_4, Q8N448
[5] = target: MAGI1_5, Q96QZ7
[6] = target: MAGI3_3, Q5TCQ9
[7] = target: T3, MPDZ_13, O75970
[8] = target: T4, MPDZ_2, O75970
[9] = target: T5, MPDZ_6, O75970
[10] = target: T6, NHERF3_2, Q5T2W1
[11] = target: PARD3B_2, Q8TEW8
[12] = target: T7, PDLIM3, Q53GG5
[13] = target: PDLIM4, P50479
[14] = target: T8, PDZD2_3, O15018
[15] = target: T9, PDZD8, Q8NEN9
[16] = target: PDZD9, Q8IXQ8
[17] = target: PDZRN4_2, Q6ZMN7
[18] = target: T10, PREX2_2, Q70Z35
[19] = target: PTPN13_2, Q12923
[20] = target: Q5TCQ9
[21] = target: Q9NPB6
[22] = target: Q9UDY2
[23] = target: T11, SHROOM2, Q13796
[24] = target: T12, SIPA1L3, O60292
[25] = target: T13, SYNPO2L, Q9H987

Sequence of PTPN13_2, Q12923 (Q12923 1363-1462): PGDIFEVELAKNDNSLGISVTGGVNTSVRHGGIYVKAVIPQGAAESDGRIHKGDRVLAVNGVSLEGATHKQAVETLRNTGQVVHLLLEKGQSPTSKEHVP
Sequence of CARD14, Q9BXL6 (Q9BXL6 558-663): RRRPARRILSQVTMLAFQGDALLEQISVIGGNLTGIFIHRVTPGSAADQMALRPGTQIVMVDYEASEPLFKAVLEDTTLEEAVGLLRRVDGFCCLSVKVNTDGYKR
Sequence of Inadl_7, Q8NI35 (Q8NI35 1219-1332): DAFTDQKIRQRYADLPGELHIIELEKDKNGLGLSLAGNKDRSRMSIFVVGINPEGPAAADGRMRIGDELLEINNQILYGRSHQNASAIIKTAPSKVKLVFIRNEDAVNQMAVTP
Sequence of PDZD9, Q8IXQ8 (Q8IXQ8 23-120): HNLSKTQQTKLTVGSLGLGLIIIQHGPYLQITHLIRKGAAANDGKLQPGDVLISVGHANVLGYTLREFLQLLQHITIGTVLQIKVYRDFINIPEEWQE
Sequence of PARD3B_2, Q8TEW8 (Q8TEW8 376-471): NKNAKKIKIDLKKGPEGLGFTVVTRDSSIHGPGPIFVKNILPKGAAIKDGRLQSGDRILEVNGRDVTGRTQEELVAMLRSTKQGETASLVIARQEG
Sequence of MAGI1_5, Q96QZ7 (Q96QZ7 986-1098): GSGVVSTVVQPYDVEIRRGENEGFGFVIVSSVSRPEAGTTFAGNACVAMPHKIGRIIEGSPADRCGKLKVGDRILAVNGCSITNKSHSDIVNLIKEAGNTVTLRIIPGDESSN
Sequence of MAGI3_3, Q5TCQ9 (Q5TCQ9 572-655): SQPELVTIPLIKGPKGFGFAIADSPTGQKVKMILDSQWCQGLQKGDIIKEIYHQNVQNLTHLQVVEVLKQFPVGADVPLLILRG
Sequence of PDLIM4, P50479 (P50479 1-83): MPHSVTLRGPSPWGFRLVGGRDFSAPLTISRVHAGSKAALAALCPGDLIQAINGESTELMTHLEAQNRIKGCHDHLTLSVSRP
Sequence of PDZRN4_2, Q6ZMN7 (Q6ZMN7 389-498): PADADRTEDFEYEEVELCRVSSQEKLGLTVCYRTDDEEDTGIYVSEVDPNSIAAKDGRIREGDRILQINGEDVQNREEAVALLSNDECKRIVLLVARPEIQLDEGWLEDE

pKd [1]	pKd [2]	pKd [3]	pKd [4]	pKd [5]	pKd [6]	pKd [7]	pKd [8]	pKd [9]	pKd [10]	pKd [11]	pKd [12]	pKd [13]	pKd [14]	pKd [15]	pKd [16]	pKd [17]	pKd [18]	pKd [19]	pKd [20]	Binder	also measured
below the threshold	below the threshold	below the threshold	below the threshold	5.11	below the threshold	below the threshold	below the threshold	below the threshold	4.06	below the threshold	4.11	below the threshold	4.32	below the threshold	below the threshold	below the threshold	below the threshold	below the threshold	below the threshold	STLTIFETAL [ABCC4, O15439]	pKd [21]: below the threshold; pKd [22]: below the threshold; pKd [23]: 4.44; pKd [24]: below the threshold; pKd [25]: below the threshold
below the threshold	below the threshold	below the threshold	below the threshold	below the threshold	below the threshold	below the threshold	below the threshold	below the threshold	below the threshold	below the threshold	below the threshold	below the threshold	below the threshold	below the threshold	below the threshold	below the threshold	below the threshold	below the threshold	below the threshold	QSARYRDTEL [TJP2, Q9UDY2]	pKd [21]: below the threshold; pKd [22]: below the threshold; pKd [23]: below the threshold; pKd [24]: below the threshold; pKd [25]: below the threshold
